# Data published in ChEMBL document CHEMBL2177050, “Understanding the binding of daunorubicin and doxorubicin to NADPH-dependent cytosolic reductases by computational methods” (Eur J Med Chem, 2012).
# T1: Aldo-keto reductase family 1 member A1 (Homo sapiens) (UniProt P14550)
# T1 sequence (whole entry): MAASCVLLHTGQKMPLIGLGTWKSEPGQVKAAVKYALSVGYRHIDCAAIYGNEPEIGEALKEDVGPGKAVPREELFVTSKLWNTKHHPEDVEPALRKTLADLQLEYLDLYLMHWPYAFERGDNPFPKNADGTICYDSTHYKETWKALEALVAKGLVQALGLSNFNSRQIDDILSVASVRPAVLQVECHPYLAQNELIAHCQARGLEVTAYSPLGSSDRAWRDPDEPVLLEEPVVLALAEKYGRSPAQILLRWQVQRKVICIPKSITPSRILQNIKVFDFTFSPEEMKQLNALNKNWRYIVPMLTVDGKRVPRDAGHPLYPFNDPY
# B1: Carbonyl reductase [NADPH] 1 (Homo sapiens), P16152 (protein)
# chain: MSSGIHVALVTGGNKGIGLAIVRDLCRLFSGDVVLTARDVTRGQAAVQQLQAEGLSPRFHQLDIDDLQSIRALRDFLRKEYGGLDVLVNNAGIAFKVADPTPFHIQAEVTMKTNFFGTRDVCTELLPLIKPQGRVVNVSSIMSVRALKSCSPELQQKFRSETITEEELVGLMNKFVEDTKKGVHQKEGWPSSAYGVTKIGVTVLSRIHARKLSEQRKGDKILLNACCPGWVRTDMAGPKATKSPEEGAETPVYLALLPPDAEGPHGQFVSEKRVEQW
# B2: Aldo-keto reductase family 1 member A1 (Homo sapiens), P14550 (protein)
# chain: MAASCVLLHTGQKMPLIGLGTWKSEPGQVKAAVKYALSVGYRHIDCAAIYGNEPEIGEALKEDVGPGKAVPREELFVTSKLWNTKHHPEDVEPALRKTLADLQLEYLDLYLMHWPYAFERGDNPFPKNADGTICYDSTHYKETWKALEALVAKGLVQALGLSNFNSRQIDDILSVASVRPAVLQVECHPYLAQNELIAHCQARGLEVTAYSPLGSSDRAWRDPDEPVLLEEPVVLALAEKYGRSPAQILLRWQVQRKVICIPKSITPSRILQNIKVFDFTFSPEEMKQLNALNKNWRYIVPMLTVDGKRVPRDAGHPLYPFNDPY
# Experiments:
# [1] = biological target: T1, Aldo-keto reductase family 1 member A1 (Homo sapiens); test: Activity of human AKR1A1 expressed in Escherichia coli BL21 assessed per mg protein in presence of 0.2 mM NADPH
# [2] = substrate: COc1cccc2c1C(=O)c1c(O)c3c(c(O)c1C2=O)C[C@@](O)(C(=O)CO)C[C@@H]3O[C@H]1C[C@H](N)[C@H](O)[C@H](C)O1; test: Activity of His-tagged carbonyl reductase 1
# [3] = substrate: COc1cccc2c1C(=O)c1c(O)c3c(c(O)c1C2=O)C[C@@](O)(C(=O)CO)C[C@@H]3O[C@H]1C[C@H](N)[C@H](O)[C@H](C)O1; test: (§1) Activity of human recombinant His6-tagged carbonyl reductase 1 expressed in Escherichia coli BL21(DE3) using menadione as substrate by Michaelis-Menten plot analysis
# [4] = substrate: COc1cccc2c1C(=O)c1c(O)c3c(c(O)c1C2=O)C[C@@](O)(C(C)=O)C[C@@H]3O[C@H]1C[C@H](N)[C@H](O)[C@H](C)O1; test: as §1
# [5] = substrate: COc1cccc2c1C(=O)c1c(O)c3c(c(O)c1C2=O)C[C@@](O)(C(=O)CO)C[C@@H]3O[C@H]1C[C@H](N)[C@H](O)[C@H](C)O1; test: (§2) Activity of human carbonyl reductase 1
# [6] = substrate: COc1cccc2c1C(=O)c1c(O)c3c(c(O)c1C2=O)C[C@@](O)(C(C)=O)C[C@@H]3O[C@H]1C[C@H](N)[C@H](O)[C@H](C)O1; test: as §2
# [7] = substrate: COc1cccc2c1C(=O)c1c(O)c3c(c(O)c1C2=O)C[C@@](O)(C(=O)CO)C[C@@H]3O[C@H]1C[C@H](N)[C@H](O)[C@H](C)O1; test: Activity of GST-tagged aldo-keto reductase 1A1
molecule,measurement,setting,value
COc1cccc2c1C(=O)c1c(O)c3c(c(O)c1C2=O)C[C@@](O)(C(C)=O)C[C@@H]3O[C@H]1C[C@H](N)[C@H](O)[C@H](C)O1,Activity,[1],120 nmol/min
COc1cccc2c1C(=O)c1c(O)c3c(c(O)c1C2=O)C[C@@](O)(C(=O)CO)C[C@@H]3O[C@H]1C[C@H](N)[C@H](O)[C@H](C)O1,Activity,[1],11 nmol/min
B1,Km,[2],167 µM
same,kcat,[2],0.62 min⁻¹
same,Km,[3],287 µM
same,kcat,[3],0.21 s⁻¹
same,Km,[4],51 µM
same,kcat,[4],1.94 s⁻¹
same,Km,[5],90 µM
same,Km,[6],108 µM
same,kcat,[6],1.27 s⁻¹
B2,Km,[7],247 µM
same,kcat,[7],0.04 min⁻¹
